The target in assay [1] is T1, CD3 on human donor PBMC / Pan T effector cells (human, UniProt P07766 23-207; P09693 23-182; P04234 22-171; P20963 22-164). Briefly: cell-based or functional assay.
For assay [2], the target named is T1, CD3 on human donor PBMC / Pan T …. Briefly: cell-based or functional assay. This is another data set of the same source.

This is an account of results in patent US20260167721A1 (ABLEXIS, published 2026).

T1 sequence (P07766 23-207, chain 1 of 4): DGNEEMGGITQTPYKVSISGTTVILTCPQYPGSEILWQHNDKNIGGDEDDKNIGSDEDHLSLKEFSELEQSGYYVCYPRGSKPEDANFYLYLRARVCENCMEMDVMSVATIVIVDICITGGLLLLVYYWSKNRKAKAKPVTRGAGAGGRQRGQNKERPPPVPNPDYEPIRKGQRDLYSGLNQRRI
T1 sequence (P09693 23-182, chain 2 of 4): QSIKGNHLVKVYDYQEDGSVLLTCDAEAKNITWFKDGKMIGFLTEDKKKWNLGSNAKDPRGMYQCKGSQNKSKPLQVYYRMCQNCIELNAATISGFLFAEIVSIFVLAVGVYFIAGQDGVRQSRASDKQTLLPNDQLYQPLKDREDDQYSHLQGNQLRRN
T1 sequence (P04234 22-171, chain 3 of 4): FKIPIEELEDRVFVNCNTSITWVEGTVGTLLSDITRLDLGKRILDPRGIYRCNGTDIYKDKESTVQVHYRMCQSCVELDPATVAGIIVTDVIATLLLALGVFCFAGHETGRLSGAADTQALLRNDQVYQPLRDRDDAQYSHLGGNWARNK
T1 sequence (P20963 22-164, chain 4 of 4): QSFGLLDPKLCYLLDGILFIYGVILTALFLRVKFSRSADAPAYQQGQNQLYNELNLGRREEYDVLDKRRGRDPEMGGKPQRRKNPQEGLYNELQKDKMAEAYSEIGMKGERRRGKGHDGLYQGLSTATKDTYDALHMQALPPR

B1: CD3 × CD33-BspAb116 (bispecific antibody)
chain 1: NFMLTQPHSVSESPGKTVTISCTRSSGSIASNYVQWYQQRPGSSPTTVIYEDNQRPSGVPDRFSGSIDSSSNSASLTISGLKTEDEAYYYCQSFDSSNRVFGCGTKLTVLGGGGSGGGGSGGGGSGGGGSQVQLQESGPGLVKPSQTLSLTCTVSGGSISSGGYYWSWIRQHPGKCLEWIGYIYYSGSTYYNPSLKSRVTISVDTSKDQFSLKLSSVTAADTAVYYCARERKTSLPFDIWGQGTMVTVSSDKTHTCPPCPAPEFEGGPSVFLFPPKPKDTLMISRTPEVTCVVVDVSHEDPEVKFNWYVDGVEVHNAKTKPREEQYNSTYRVVSVLTVLHQDWLNGKEYKCKVSNKALPASIEKTISKAKGQPREPQVYTLPPCREEMTKNQVSLWCLVKGFYPSDIAVEWESNGQPENNYKTTPPVLDSDGSFFLYSKLTVDKSRWQQGNVFSCSVMHEALHNHYTQKSLSLSPGK
chain 2: EVQLVQSGAEVKKPGSSVKVSCKASGYTITDSNIHWVRQAPGQSLEWIGYIYPYNGGTDYNQKFKNRATLTVDNPTNTAYMELSSLRSEDTAFYYCVNGNPWLAYWGQGTLVTVSSASTKGPSVFPLAPSSKSTSGGTAALGCLVKDYFPEPVTVSWNSGALTSGVHTFPAVLQSSGLYSLSSVVTVPSSSLGTQTYICNVNHKPSNTKVDKRVEPKSCDKTHTCPPCPAPEFEGGPSVFLFPPKPKDTLMISRTPEVTCVVVDVSHEDPEVKFNWYVDGVEVHNAKTKPREEQYNSTYRVVSVLTVLHQDWLNGKEYKCKVSNKALPASIEKTISKAKGQPREPQVCTLPPSREEMTKNQVSLSCAVKGFYPSDIAVEWESNGQPENNYKTTPPVLDSDGSFFLVSKLTVDKSRWQQGNVFSCSVMHEALHNRFTQKSLSLSPGK
chain 3: DIQLTQSPSTLSASVGDRVTITCRASESLDNYGIRFLTWFQQKPGKAPKLLMYAASNQGSGVPSRFSGSGSGTEFTLTISSLQPDDFATYYCQQTKEVPWSFGQGTKVEVKRTVAAPSVFIFPPSDEQLKSGTASVVCLLNNFYPREAKVQWKVDNALQSGNSQESVTEQDSKDSTYSLSSTLTLSKADYEKHKVYACEVTHQGLSSPVTKSFNRGEC
As to B1, in assay [1], the “Cytokine Release Assay (TNFα) Donor 0 EC50” value amounted to 0.61 nM, the “Cytokine Release Assay (TNFα) Donor 0 gMFI max” value came to 18000 gMFI, the “Cytokine Release Assay (TNFα) Donor 1 gMFI max” value came to 4930 gMFI and the “Cytokine Release Assay (TNFα) Donor 2 EC50” value was determined as 0.155 nM. Moreover, in assay [1], the “Cytokine Release Assay (TNFα) Donor 2 gMFI max” value was found to be 9080 gMFI, the “Cytokine Release Assay (TNFα) Donor 3 EC50” value amounted to 0.685 nM and the “Cytokine Release Assay (TNFα) Donor 3 gMFI max” value is 13600 gMFI. For the same molecule, in assay [2], the “Cytokine Release Assay (IL2) Donor 0 EC50” value was 0.45 nM, the “Cytokine Release Assay (IL2) Donor 0 gMFI max” value stood at 23200 gMFI, the “Cytokine Release Assay (IL2) Donor 1 EC50” value turned out to be 0.384 nM and the “Cytokine Release Assay (IL2) Donor 1 gMFI max” value came to 19000 gMFI. In assay [2], the “Cytokine Release Assay (IL2) Donor 2 EC50” value turned out to be 0.0909 nM, the “Cytokine Release Assay (IL2) Donor 2 gMFI max” value amounted to 16800 gMFI, the “Cytokine Release Assay (IL2) Donor 3 EC50” value came out at 0.198 nM and the “Cytokine Release Assay (IL2) Donor 3 gMFI max” value stood at 27200 gMFI.

B2: CD3 × CD33-BspAb37 (bispecific antibody)
chain 1: not shown
chain 2: EVQLVQSGAEVKKPGSSVKVSCKASGYTITDSNIHWVRQAPGQSLEWIGYIYPYNGGTDYNQKFKNRATLTVDNPTNTAYMELSSLRSEDTAFYYCVNGNPWLAYWGQGTLVTVSSASTKGPSVFPLAPSSKSTSGGTAALGCLVKDYFPEPVTVSWNSGALTSGVHTFPAVLQSSGLYSLSSVVTVPSSSLGTQTYICNVNHKPSNTKVDKRVEPKSCDKTHTCPPCPAPEFEGGPSVFLFPPKPKDTLMISRTPEVTCVVVDVSHEDPEVKFNWYVDGVEVHNAKTKPREEQYNSTYRVVSVLTVLHQDWLNGKEYKCKVSNKALPASIEKTISKAKGQPREPQVCTLPPSREEMTKNQVSLSCAVKGFYPSDIAVEWESNGQPENNYKTTPPVLDSDGSFFLVSKLTVDKSRWQQGNVFSCSVMHEALHNRFTQKSLSLSPGK
chain 3: DIQLTQSPSTLSASVGDRVTITCRASESLDNYGIRFLTWFQQKPGKAPKLLMYAASNQGSGVPSRFSGSGSGTEFTLTISSLQPDDFATYYCQQTKEVPWSFGQGTKVEVKRTVAAPSVFIFPPSDEQLKSGTASVVCLLNNFYPREAKVQWKVDNALQSGNSQESVTEQDSKDSTYSLSSTLTLSKADYEKHKVYACEVTHQGLSSPVTKSFNRGEC
Turning to B2, in assay [1], the “Cytokine Release Assay (TNFα) Donor 0 EC50” value worked out at 0.165 nM, the “Cytokine Release Assay (TNFα) Donor 0 gMFI max” value was determined as 48300 gMFI, the “Cytokine Release Assay (TNFα) Donor 1 gMFI max” value stood at 5610 gMFI and the “Cytokine Release Assay (TNFα) Donor 2 EC50” value is 0.0832 nM. In assay [1], the “Cytokine Release Assay (TNFα) Donor 2 gMFI max” value worked out at 15800 gMFI, the “Cytokine Release Assay (TNFα) Donor 3 EC50” value came to 0.222 nM and the “Cytokine Release Assay (TNFα) Donor 3 gMFI max” value came to 31600 gMFI. Besides, in assay [2], the “Cytokine Release Assay (IL2) Donor 0 EC50” value stood at 0.18 nM, the “Cytokine Release Assay (IL2) Donor 0 gMFI max” value turned out to be 69200 gMFI, the “Cytokine Release Assay (IL2) Donor 1 EC50” value was determined as 0.437 nM and the “Cytokine Release Assay (IL2) Donor 1 gMFI max” value is 26800 gMFI. Besides, in assay [2], the “Cytokine Release Assay (IL2) Donor 2 EC50” value came out at 0.141 nM, the “Cytokine Release Assay (IL2) Donor 2 gMFI max” value was found to be 34800 gMFI, the “Cytokine Release Assay (IL2) Donor 3 EC50” value worked out at 0.181 nM and the “Cytokine Release Assay (IL2) Donor 3 gMFI max” value was found to be 104000 gMFI.

B3: CD3 × CD33-BspAb38 (bispecific antibody)
chain 1: not shown
chain 2: EVQLVQSGAEVKKPGSSVKVSCKASGYTITDSNIHWVRQAPGQSLEWIGYIYPYNGGTDYNQKFKNRATLTVDNPTNTAYMELSSLRSEDTAFYYCVNGNPWLAYWGQGTLVTVSSASTKGPSVFPLAPSSKSTSGGTAALGCLVKDYFPEPVTVSWNSGALTSGVHTFPAVLQSSGLYSLSSVVTVPSSSLGTQTYICNVNHKPSNTKVDKRVEPKSCDKTHTCPPCPAPEFEGGPSVFLFPPKPKDTLMISRTPEVTCVVVDVSHEDPEVKFNWYVDGVEVHNAKTKPREEQYNSTYRVVSVLTVLHQDWLNGKEYKCKVSNKALPASIEKTISKAKGQPREPQVCTLPPSREEMTKNQVSLSCAVKGFYPSDIAVEWESNGQPENNYKTTPPVLDSDGSFFLVSKLTVDKSRWQQGNVFSCSVMHEALHNRFTQKSLSLSPGK
chain 3: DIQLTQSPSTLSASVGDRVTITCRASESLDNYGIRFLTWFQQKPGKAPKLLMYAASNQGSGVPSRFSGSGSGTEFTLTISSLQPDDFATYYCQQTKEVPWSFGQGTKVEVKRTVAAPSVFIFPPSDEQLKSGTASVVCLLNNFYPREAKVQWKVDNALQSGNSQESVTEQDSKDSTYSLSSTLTLSKADYEKHKVYACEVTHQGLSSPVTKSFNRGEC
For the molecule B3, in assay [1], the “Cytokine Release Assay (TNFα) Donor 0 EC50” value was determined as 6.01 nM, the “Cytokine Release Assay (TNFα) Donor 0 gMFI max” value turned out to be 28500 gMFI, the “Cytokine Release Assay (TNFα) Donor 1 gMFI max” value worked out at 4840 gMFI and the “Cytokine Release Assay (TNFα) Donor 2 EC50” value came out at 4.03 nM. Further, in assay [1], the “Cytokine Release Assay (TNFα) Donor 2 gMFI max” value was 10100 gMFI, the “Cytokine Release Assay (TNFα) Donor 3 EC50” value stood at 5.95 nM and the “Cytokine Release Assay (TNFα) Donor 3 gMFI max” value came to 17900 gMFI. In assay [2], the “Cytokine Release Assay (IL2) Donor 0 EC50” value came out at 6.63 nM, the “Cytokine Release Assay (IL2) Donor 0 gMFI max” value came out at 39300 gMFI, the “Cytokine Release Assay (IL2) Donor 1 EC50” value came out at 2.87 nM and the “Cytokine Release Assay (IL2) Donor 1 gMFI max” value was 16200 gMFI. Besides, in assay [2], the “Cytokine Release Assay (IL2) Donor 2 EC50” value came to 1.73 nM, the “Cytokine Release Assay (IL2) Donor 2 gMFI max” value came out at 19200 gMFI, the “Cytokine Release Assay (IL2) Donor 3 EC50” value stood at 1.84 nM and the “Cytokine Release Assay (IL2) Donor 3 gMFI max” value amounted to 45900 gMFI.

B4: CD3 × CD33-BspAb45 (bispecific antibody)
chain 1: EVQLVESGGGLVQPGGSLRLSCAASGFTFSRYSMNWVRQAPGKCLEWVSYISSSSSSIYYADSVKGRFTISRDNAKNSLYLQMNSLRDEDTAVYYCARDRRATLDYWGQGTLVTVSSGGGGSGGGGSGGGGSGGGGSNFMLTQPHSVSESPGKTVTISCTRSSGSIASNYVQWYQQRPGSSPTTVIYEDNQRPSGVPDRFSGSIDSSSNSASLTISGLKTEDEADYYCQSYDSSNHVFGCGTKLTVLDKTHTCPPCPAPEFEGGPSVFLFPPKPKDTLMISRTPEVTCVVVDVSHEDPEVKFNWYVDGVEVHNAKTKPREEQYNSTYRVVSVLTVLHQDWLNGKEYKCKVSNKALPASIEKTISKAKGQPREPQVYTLPPCREEMTKNQVSLWCLVKGFYPSDIAVEWESNGQPENNYKTTPPVLDSDGSFFLYSKLTVDKSRWQQGNVFSCSVMHEALHNHYTQKSLSLSPGK
chain 2: EVQLVQSGAEVKKPGSSVKVSCKASGYTITDSNIHWVRQAPGQSLEWIGYIYPYNGGTDYNQKFKNRATLTVDNPTNTAYMELSSLRSEDTAFYYCVNGNPWLAYWGQGTLVTVSSASTKGPSVFPLAPSSKSTSGGTAALGCLVKDYFPEPVTVSWNSGALTSGVHTFPAVLQSSGLYSLSSVVTVPSSSLGTQTYICNVNHKPSNTKVDKRVEPKSCDKTHTCPPCPAPEFEGGPSVFLFPPKPKDTLMISRTPEVTCVVVDVSHEDPEVKFNWYVDGVEVHNAKTKPREEQYNSTYRVVSVLTVLHQDWLNGKEYKCKVSNKALPASIEKTISKAKGQPREPQVCTLPPSREEMTKNQVSLSCAVKGFYPSDIAVEWESNGQPENNYKTTPPVLDSDGSFFLVSKLTVDKSRWQQGNVFSCSVMHEALHNRFTQKSLSLSPGK
chain 3: DIQLTQSPSTLSASVGDRVTITCRASESLDNYGIRFLTWFQQKPGKAPKLLMYAASNQGSGVPSRFSGSGSGTEFTLTISSLQPDDFATYYCQQTKEVPWSFGQGTKVEVKRTVAAPSVFIFPPSDEQLKSGTASVVCLLNNFYPREAKVQWKVDNALQSGNSQESVTEQDSKDSTYSLSSTLTLSKADYEKHKVYACEVTHQGLSSPVTKSFNRGEC
For B4, in assay [1], the “Cytokine Release Assay (TNFα) Donor 0 EC50” value worked out at 0.0919 nM, the “Cytokine Release Assay (TNFα) Donor 0 gMFI max” value turned out to be 71300 gMFI, the “Cytokine Release Assay (TNFα) Donor 1 gMFI max” value was 4850 gMFI and the “Cytokine Release Assay (TNFα) Donor 2 EC50” value turned out to be 0.0334 nM. In addition, in assay [1], the “Cytokine Release Assay (TNFα) Donor 2 gMFI max” value was 12100 gMFI, the “Cytokine Release Assay (TNFα) Donor 3 EC50” value was determined as 0.0216 nM and the “Cytokine Release Assay (TNFα) Donor 3 gMFI max” value stood at 31800 gMFI. In addition, in assay [2], the “Cytokine Release Assay (IL2) Donor 0 EC50” value was 0.0539 nM, the “Cytokine Release Assay (IL2) Donor 0 gMFI max” value turned out to be 50900 gMFI, the “Cytokine Release Assay (IL2) Donor 1 EC50” value came to 0.0869 nM and the “Cytokine Release Assay (IL2) Donor 1 gMFI max” value was 22200 gMFI. Moreover, in assay [2], the “Cytokine Release Assay (IL2) Donor 2 EC50” value worked out at 0.0204 nM, the “Cytokine Release Assay (IL2) Donor 2 gMFI max” value came to 26200 gMFI, the “Cytokine Release Assay (IL2) Donor 3 EC50” value stood at 0.0205 nM and the “Cytokine Release Assay (IL2) Donor 3 gMFI max” value stood at 67900 gMFI.
